{"source": "paper PMC4183798", "biological_target": "Fc-Nxph1mat-N146D/N156D/N162D (rat) (UniProt Q63366)", "sequence (Q63366 22-271 N146D/N156D/N162D)": "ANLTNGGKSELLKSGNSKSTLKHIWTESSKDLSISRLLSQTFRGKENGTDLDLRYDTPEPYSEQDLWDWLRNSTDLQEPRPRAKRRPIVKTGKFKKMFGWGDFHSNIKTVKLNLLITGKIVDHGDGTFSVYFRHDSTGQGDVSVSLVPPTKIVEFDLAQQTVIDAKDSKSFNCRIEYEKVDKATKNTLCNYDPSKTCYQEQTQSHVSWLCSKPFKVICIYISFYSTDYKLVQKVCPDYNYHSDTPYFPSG", "assay": "SPR; reversed experiment: purified Fc-Nxph1·LNS2-HA complex (formed by co-expression) bound covalently and randomly to a CMD 200m chip (EDC-NHS); running buffer 50 mM Tris pH 7.4; serial injections of elution solutions (pH 4, pH 8.9, 0.25–4 M NaCl, 5 mM EDTA, 6 M urea, 7 M guanidinium chloride); Reichert SR7000DC"}
{"substance": "C-terminally hemagglutinin (HA)-tagged LNS2 (domain or fragment)", "values": [{"measurement": "percent of the complex released after injection of 1 M NaCl", "result": 9, "unit": "%"}]}
